Measured values published in the supplement of paper PMC10567573.

B1: GOLPH3 (parent)
chain: FAPLLDEQYDLATKRVRQLLDLDP

Variants of: B1
Assay: protein stability index of a GFP-peptide fusion (GPS, HEK-293T) (PSI 1-6); higher = more stable
Settings: c terminus: a fixed tail appended
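Also: lentivirally expressed fusions sorted by FACS into six bins by GFP to DsRed ratio, PSI derived from sequencing read proportions per bin multiplied by bin number.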

Protein stability index, by site and new letter:
F1: M 3.58 | I 3.11 | N 3.86 | H 4 | C 2.5 | D 4.39 | P 4.59 | G 4.41 | W 2.46 | S 4.39
K14: V 1.84 | C 2.29 | P 2.29 | M 1.59 | Q 1.88 | S 2 | I 1.64
T13: S 2.24 | C 1.54 | G 3.19 | K 2.32 | N 1.9 | L 2.28 | H 2.18
A12: I 1.43 | E 2.66 | N 2.47 | Q 2.16 | G 2.12
D23: T 1.94 | G 2.65 | H 1.69 | S 1.85 | N 2.85 | Y 2.12 | M 1.53 | C 2.41 | L 2.01 | I 1.62 | E 1.87
E7: A 1.49 | M 1.9 | D 2.02 | W 2.56 | Y 1.48 | S 2.12 | I 1.65 | G 1.86 | K 1.87
L4: H 2.31 | W 2.28 | G 2.27 | M 1.76 | N 3.2 | F 2.01 | R 1.43
L5: N 2.97 | P 2.21 | D 3.74 | Y 2.45 | A 2.34 | S 1.85 | H 2.42
L22: N 2.46 | R 2.26 | K 2.27 | E 3.16
P24: E 2.46 | H 3.6
D6: S 2.26 | W 1.88 | G 1.45 | M 2.25 | Q 1.42 | T 1.76 | V 1.75 | K 2.4 | L 1.83 | H 1.48
A2: G 3.19 | T 2.71 | K 3.14 | H 2.48 | W 1.92 | E 3.13 | P 3.45
R17: E 2.41 | L 2.13 | N 2.83 | F 1.93 | K 1.8 | A 2.37 | D 3.1 | I 2.22
Q18: V 2.99 | K 2.18 | Y 1.74 | G 2.08 | H 2.47 | T 2.21 | L 2.52
L19: F 1.63 | I 2.46 | P 2.65 | E 2.58 | D 3.22 | V 2.33 | N 1.89 | Q 2.24
P3: S 2.34 | Q 2.05 | H 3.07 | M 1.78 | V 2.38 | N 3.18
D10: T 1.56 | F 2.69 | Y 1.63 | Q 1.46 | S 2.03 | V 1.27 | E 2.36 | C 2.54 | R 2.23 | K 1.98
L11: F 1.94 | G 2.38 | C 2.26 | A 3.3 | Q 3.52 | V 2.21 | T 2.28 | N 2.28
R15: M 1.99 | C 2.1 | N 2.3 | P 2.48 | W 1.61
Q8: R 1.39 | D 2.96 | S 2.24
V16: N 2 | D 2.02 | I 2.19 | K 1.54 | Y 2.58 | C 2.09
Y9: N 2.57 | T 2.45 | S 2.96 | I 2.26 | R 2.2 | F 2.75
L20: D 2.34 | W 2.11 | K 2.59 | S 2.53 | E 2.76 | H 1.98
D21: Y 1.88 | F 3.68 | L 2.1 | I 1.45 | W 2.22 | R 1.55 | V 2.79 | E 2.08
